In patent US20250368734A1 (ANTENGENE BIOLOGICS, published 2025):

Assays:
cynomolgus monkey GPRC5D [1] = target: T1, cynomolgus monkey GPRC5D (cynomolgus monkey); test: FACS, HEK293T-cynoGPRC5D cells
T1 construct: whole, on cells; HEK293T-cynoGPRC5D cells; also called cynoGPRC5D
From the text: (§1) The subcloning plates were screened by Mirrorball assay and the subclones with good binding ability were expanded to 24-wells for confirmation tests. The specificity and cross-reactivity of these subclones were confirmed with FACS analysis. Briefly, parental HEK293T, HEK293T cells stably over-expressing human GPRC5D protein (i.e., HEK293T-hGPRC5D), HEK293T cells stably over-expressing cynomolgus monkey GPRC5D protein (i.e., HEK293T-cynoGPRC5D), HEK293T cells stably over-expressing mouse GPRC5D protein (i.e., HEK293T-mGPRC5D), and OPM2 cells were incubated with antibodies produced by each subclone, respectively. Fluorescent dye-conjugated secondary antibody was used to detect the binding of the primary antibody with the cells. Median fluorescence intensity (MFI) was measured by FACS analysis,
(§2) As a result, 21 antibodies were discovered with unique sequences showing positive binding with HEK293T-hGPRC5D and OPM2 cells. Among which, some clones could also bind with HEK293T-cynoGPRC5D and/or HEK293T-mGPRC5D. […] ATG596 was a positive human IgG1 control antibody which comprises a VH region having an amino acid sequence as set forth in SEQ ID NO: 199, and a VL region having an amino acid sequence as set forth in SEQ ID NO: 200.

human GPRC5D [2] = target: T2, human GPRC5D (human, UniProt Q9NZD1 1-345); test: FACS, OPM-2 cells
T2 construct: whole, on cells; also called hGPRC5D; G-protein coupled receptor family C group 5 member D
T2 sequence (Q9NZD1 whole entry): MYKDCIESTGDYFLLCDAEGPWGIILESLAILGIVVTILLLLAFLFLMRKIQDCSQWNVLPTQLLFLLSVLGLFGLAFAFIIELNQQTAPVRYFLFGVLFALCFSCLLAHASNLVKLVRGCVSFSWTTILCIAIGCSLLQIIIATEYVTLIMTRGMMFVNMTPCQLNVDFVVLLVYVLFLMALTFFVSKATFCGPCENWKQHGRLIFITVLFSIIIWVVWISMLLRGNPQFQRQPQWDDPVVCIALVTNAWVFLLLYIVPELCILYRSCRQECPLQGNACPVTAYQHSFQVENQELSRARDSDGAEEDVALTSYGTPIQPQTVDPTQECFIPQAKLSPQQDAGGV
From the text: as §1, §2

mouse GPRC5D [3] = target: T3, mouse GPRC5D (mouse, UniProt Q9JIL6 1-344); test: FACS, HEK293T-mGPRC5D cells
T3 construct: whole, on cells; HEK293T-mGPRC5D cells; also called mGPRC5D; murine GPRC5D
T3 sequence (looked up): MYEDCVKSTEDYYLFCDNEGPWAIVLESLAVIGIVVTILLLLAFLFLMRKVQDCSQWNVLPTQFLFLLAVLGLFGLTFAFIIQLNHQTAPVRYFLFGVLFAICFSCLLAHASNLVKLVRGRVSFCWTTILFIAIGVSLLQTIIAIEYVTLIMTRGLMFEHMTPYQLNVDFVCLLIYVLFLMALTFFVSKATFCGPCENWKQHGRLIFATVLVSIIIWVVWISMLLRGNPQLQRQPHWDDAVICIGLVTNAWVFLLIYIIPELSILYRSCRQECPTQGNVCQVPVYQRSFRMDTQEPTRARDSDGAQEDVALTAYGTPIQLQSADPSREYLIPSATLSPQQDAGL
From the text: as §1, §2

human GPRC5D [4] = target: T2, human GPRC5D; test: FACS, HEK293T-hGPRC5D cells
From the text: as §1, §2

mouse GPRC5D [5] = target: T3, mouse GPRC5D; test: FACS, HEK293T-mGPRC5D cells; remark: listed apart in the source
human GPRC5D [6] = target: T2, human GPRC5D; test: FACS, CHOS-hGPRC5D cells
cynomolgus monkey GPRC5D [7] = target: T1, cynomolgus monkey GPRC5D; test: FACS, HEK293T-cynoGPRC5D cells; remark: listed apart in the source

B1: 96C9E7 (antibody, V domains shown)
VH: EVQLQQSGPELVKPGASVKMSCKASGYTFTYYILHWVKQKPGQGLEWIGYFNPYNDGNKFNERFRGKATLTSDKSSSTAYMELNSLTSEDSAVYFCARGGVRRYFDVWGAGTTVTVSS
VL: DIQMTQSPSSLSASLGERVSLTCRASQDIGSNLNWLQQEPDGTIKRLISATFSLDSGVPKRFSGSRSGSDYSLTISSLESEDFVNYYCLQYASFPYTFGGGTKLEIK
notes: Mouse monoclonal antibody from hybridoma subclone
With B1 the “% Positive” value (cynomolgus monkey GPRC5D [1]) was 71.7%, the MFI (cynomolgus monkey GPRC5D [1]) was 4020 and the “% Positive” value (human GPRC5D [2]) was 99.9%. For the same binder, the MFI (human GPRC5D [2]) was 1930, the “% Positive” value (mouse GPRC5D [3]) was 49.2% and the MFI (mouse GPRC5D [3]) was 202. The “% Positive” value (human GPRC5D [4]) was 58.8% and the MFI (human GPRC5D [4]) was 680.

B2: 110B4H5 (antibody, V domains shown)
VH: EVQLQQSGPELVKPGASVKMSCKASGYTFTFYIMHWVKQKPGQGPEWIGYINPYNDGTKYNAKFKGKATLSSDRSSSTAYMELSSLTSEDSAVYYCARGGVRRYFDVWGAGTPVTVSS
VL: DIQMTQSPSSLSASLGERVSLTCRSSQDIGSNLNWLQQEPDGTIKRLIYATFSLDSGVPKRFSGSRSGSHYSLTISSLESEDFVVYYCLQYGSFPYTFGGGTKLEIK
notes: as for B1
B2 was tested, and the “% Positive” value (cynomolgus monkey GPRC5D [1]) was 96.7%, the MFI (cynomolgus monkey GPRC5D [1]) was 2470 and the “% Positive” value (human GPRC5D [2]) was 98.2%. For the same binder, the MFI (human GPRC5D [2]) was 894, the “% Positive” value (mouse GPRC5D [3]) was 78.9% and the MFI (mouse GPRC5D [3]) was 772. The “% Positive” value (human GPRC5D [4]) was 98.7% and the MFI (human GPRC5D [4]) was 5250.

B3: ch108C4C12 (antibody, V domains shown)
VH: EVQLQQSGPELVKPGASVKMSCKASGYTFTSYVIHWVKQKTGQGLEWIGYFNPYNDGTKYNEEFKGKATLTSDKSSNTAYMELNSLTSDDSAVYFCARGGVRRYFDVWGAGTTVTVSS
VL: DIQMTQSPSSLSASLGERVSLTCRASQDIGSNLNWLQQEPDGTIKRLIYATFGLDSGVPKRFSGSRSGSDYSLTISSLESEDFVDYYCQQYASFPYTFGGGTKLEIK
B3 gave an EC50 (mouse GPRC5D [5]) of 109 nM, a Top (mouse GPRC5D [5]) of 25500 and an EC50 (human GPRC5D [6]) of 0.463 nM. It also gave a Top (human GPRC5D [6]) of 2040, an EC50 (cynomolgus monkey GPRC5D [7]) of 3.87 nM and a Top (cynomolgus monkey GPRC5D [7]) of 39700.

B4: ch96C9E7 (antibody, V domains shown)
VH: EVQLQQSGPELVKPGASVKMSCKASGYTFTYYILHWVKQKPGQGLEWIGYFNPYNDGNKFNERFRGKATLTSDKSSSTAYMELNSLTSEDSAVYFCARGGVRRYFDVWGAGTTVTVSS
VL: DIQMTQSPSSLSASLGERVSLTCRASQDIGSNLNWLQQEPDGTIKRLISATFSLDSGVPKRFSGSRSGSDYSLTISSLESEDFVNYYCLQYASFPYTFGGGTKLEIK
Binder B4 has an EC50 (mouse GPRC5D [5]) of 18.5 nM, a Top (mouse GPRC5D [5]) of 19200 and an EC50 (human GPRC5D [6]) of 1.97 nM. For the same binder, the Top (human GPRC5D [6]) was 2830, the EC50 (cynomolgus monkey GPRC5D [7]) was 8.25 nM and the Top (cynomolgus monkey GPRC5D [7]) was 34300.

B5: ch110B4H5 (antibody, V domains shown)
VH: EVQLQQSGPELVKPGASVKMSCKASGYTFTFYIMHWVKQKPGQGPEWIGYINPYNDGTKYNAKFKGKATLSSDRSSSTAYMELSSLTSEDSAVYYCARGGVRRYFDVWGAGTPVTVSS
VL: DIQMTQSPSSLSASLGERVSLTCRSSQDIGSNLNWLQQEPDGTIKRLIYATFSLDSGVPKRFSGSRSGSHYSLTISSLESEDFVVYYCLQYGSFPYTFGGGTKLEIK
In the case of B5, the EC50 (mouse GPRC5D [5]) is reported as 14.2 nM, the Top (mouse GPRC5D [5]) is reported as 42900 and the EC50 (human GPRC5D [6]) is reported as 2.74 nM. It also gave a Top (human GPRC5D [6]) of 1820, an EC50 (cynomolgus monkey GPRC5D [7]) of 4.87 nM and a Top (cynomolgus monkey GPRC5D [7]) of 27600.

B6: 90G6H3 (antibody, V domains shown)
VH: QAYLQQSGAELVRSGASVKMSCKASGYTFTSYIMHWVKQTPGQGLEWIGYIYPGNGGTNYNQKFKDKATLSADTSSSTAYMQINSLTSEDSAVYFCARWGLRQGFAYWGQGTLVSVSA
VL: DIVMTQSQKFMSTSVGDRVSVTCKASQNVGGNVAWYQQKPGQSPKALIYSTSYRNSGVPDRFTGSGSGTDFTLTISNVQSEDLAEYFCQQYNSYPFTFGSGTKLEIR
notes: as for B1
B6 was tested, and the “% Positive” value (cynomolgus monkey GPRC5D [1]) was 99.4%, the MFI (cynomolgus monkey GPRC5D [1]) was 11400 and the “% Positive” value (human GPRC5D [2]) was 97.3%. For the same binder, the MFI (human GPRC5D [2]) was 712, the “% Positive” value (mouse GPRC5D [3]) was 87.4% and the MFI (mouse GPRC5D [3]) was 2230. The “% Positive” value (human GPRC5D [4]) was 96.7% and the MFI (human GPRC5D [4]) was 4940.
